The labels stand for the following.
B1: glmS ribozyme (parent)
chain: AUAAAAGCGCCAGAACUACAGAAAUGUAGUUGACGAGGAGGAGGUUUAUCGAAUUUUCGGCGGAUGCCUCCAAA

± gives the standard error. For some of these results: Variants at the floor of the assay were thinned out.

Common to all, as to conditions: with glucosamine-6-phosphate
The variants in data set [1] derive from B1. In words: kcat; higher = faster cleavage; RNA array. Put shortly: (§1)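 Barcoded ribozyme variants were transcribed in situ on sequenced MiSeq chips by E. coli RNA polymerase. At 37 °C, a hybridised Cy3 probe tracked them while glucosamine-6-phosphate (40 μM to 10 mM) in HEPES/KCl/Mg(OAc)2 buffer flowed in and tiles were imaged over ~14 h. Per-tile medians of signals normalised to baseline and to non-cleaving reference variants were fit to one- or two-exponential decays, giving kobs. kcat and KM came from weighted Michaelis–Menten fits across concentrations.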

Variants of B1 are the subject of data set [2]. Kind of data set: KM; higher = weaker cofactor use; RNA array. Put shortly: as §1
Data set [3] covers variants of B1. In words: self-cleavage kobs at 40 uM GlcN6P; higher = faster cleavage; RNA array. The gist of the method: as §1
Data set [4] covers variants of B1. Kind of data set: self-cleavage kobs at 160 uM GlcN6P; higher = faster cleavage; RNA array. The gist of the method: as §1
The variants in data set [5] derive from B1. In words: self-cleavage kobs at 640 uM GlcN6P; higher = faster cleavage; RNA array. Put shortly:
as §1

Variants of B1 are the subject of data set [6]. In words: self-cleavage kobs at 2500 uM GlcN6P; higher = faster cleavage; RNA array. The gist of the method: as §1
In data set [7] the parent is B1. In words: self-cleavage kobs at 10000 uM GlcN6P; higher = faster cleavage; RNA array. The gist of the method:
as §1

Consider G13A, for which the kcat (usually the maximal rate divided by the concentration of active sites) in the data set with glucosamine-6-phosphate [1] came to 0.00142 ± 0.00018 s⁻¹. In addition, the KM (commonly the concentration of substrate that gives half-maximal velocity) with glucosamine-6-phosphate [2] was 4830 ± 750 µM. Further, the “self-cleavage kobs at 40 uM GlcN6P” value with glucosamine-6-phosphate [3] stood at 1.56e-05 ± 1.7e-06 s⁻¹. Also, the “self-cleavage kobs at 160 uM GlcN6P” value with glucosamine-6-phosphate [4] was found to be 4.65e-05 ± 1.7e-06 s⁻¹. Besides, in the data set with glucosamine-6-phosphate [5], the “self-cleavage kobs at 640 uM GlcN6P” value amounted to 0.000162 ± 3.8e-06 s⁻¹. Also, in the data set with glucosamine-6-phosphate [6], the “self-cleavage kobs at 2500 uM GlcN6P” value amounted to 0.00057 ± 3.3e-05 s⁻¹. For the same variant, in the data set with glucosamine-6-phosphate [7], the “self-cleavage kobs at 10000 uM GlcN6P” value was 0.000945 ± 3.6e-05 s⁻¹.

On to A15U C71G, for which, in the data set with glucosamine-6-phosphate [1], the turnover number (kcat) came out at 0.000329 ± 9.4e-05 s⁻¹. For the same variant, the “self-cleavage kobs at 160 uM GlcN6P” value with glucosamine-6-phosphate [4] came out at 4.2e-05 ± 8.4e-06 s⁻¹. For the same variant, the “self-cleavage kobs at 640 uM GlcN6P” value in the data set with glucosamine-6-phosphate [5] worked out at 9.25e-05 ± 9.6e-06 s⁻¹. In addition, the “self-cleavage kobs at 2500 uM GlcN6P” value in the data set with glucosamine-6-phosphate [6] worked out at 0.000157 ± 2.3e-05 s⁻¹. Also, the “self-cleavage kobs at 10000 uM GlcN6P” value with glucosamine-6-phosphate [7] turned out to be 0.000359 ± 4.3e-05 s⁻¹.

In the case of C70U C71G, in the data set with glucosamine-6-phosphate [1], the kcat came to 0.000124 ± 1e-05 s⁻¹. Further, the KM with glucosamine-6-phosphate [2] came to 242 ± 98 µM. Also, the “self-cleavage kobs at 160 uM GlcN6P” value with glucosamine-6-phosphate [4] was 7e-05 ± 1.3e-05 s⁻¹. The “self-cleavage kobs at 640 uM GlcN6P” value in the data set with glucosamine-6-phosphate [5] is 8.39e-05 ± 8.3e-06 s⁻¹. The “self-cleavage kobs at 2500 uM GlcN6P” value in the data set with glucosamine-6-phosphate [6] is 0.000118 ± 9.3e-06 s⁻¹. Further, in the data set with glucosamine-6-phosphate [7], the “self-cleavage kobs at 10000 uM GlcN6P” value turned out to be 0.00012 ± 1.1e-05 s⁻¹.

As to G32U A52G, the kcat with glucosamine-6-phosphate [1] came out at 8.92e-05 ± 4.7e-06 s⁻¹. Also, the KM with glucosamine-6-phosphate [2] was 3490 ± 570 µM. The “self-cleavage kobs at 2500 uM GlcN6P” value with glucosamine-6-phosphate [6] came to 3.86e-05 ± 7.8e-06 s⁻¹. Also, the “self-cleavage kobs at 10000 uM GlcN6P” value in the data set with glucosamine-6-phosphate [7] is 6.6e-05 ± 5.2e-06 s⁻¹.

In the case of A15C A33C, the kcat with glucosamine-6-phosphate [1] is 6.42e-05 ± 3.3e-06 s⁻¹. The KM with glucosamine-6-phosphate [2] amounted to 1900 ± 440 µM. Also, the “self-cleavage kobs at 2500 uM GlcN6P” value with glucosamine-6-phosphate [6] is 3.95e-05 ± 1.2e-05 s⁻¹. For the same variant, the “self-cleavage kobs at 10000 uM GlcN6P” value with glucosamine-6-phosphate [7] amounted to 5.37e-05 ± 6.3e-06 s⁻¹.

For A53C G66C, the kcat with glucosamine-6-phosphate [1] is 0.000476 ± 8.1e-05 s⁻¹. For the same variant, the Michaelis-Menten constant (KM) with glucosamine-6-phosphate [2] was determined as 2510 ± 780 µM. In addition, in the data set with glucosamine-6-phosphate [5], the “self-cleavage kobs at 640 uM GlcN6P” value worked out at 9.27e-05 ± 1.9e-05 s⁻¹. The “self-cleavage kobs at 2500 uM GlcN6P” value with glucosamine-6-phosphate [6] turned out to be 0.00034 ± 0.00011 s⁻¹. The “self-cleavage kobs at 10000 uM GlcN6P” value with glucosamine-6-phosphate [7] was 0.000368 ± 6.5e-05 s⁻¹.

Regarding C50A A53G, in the data set with glucosamine-6-phosphate [1], the kcat came out at 2.89e-05 ± 3e-06 s⁻¹. Further, the “self-cleavage kobs at 2500 uM GlcN6P” value with glucosamine-6-phosphate [6] came to 3.53e-05 ± 1.5e-05 s⁻¹. Moreover, the “self-cleavage kobs at 10000 uM GlcN6P” value with glucosamine-6-phosphate [7] was determined as 2.62e-05 ± 9.1e-06 s⁻¹.

Regarding C70G C71G, the kcat with glucosamine-6-phosphate [1] was determined as 3.62e-05 ± 7e-06 s⁻¹. The “self-cleavage kobs at 160 uM GlcN6P” value in the data set with glucosamine-6-phosphate [4] is 3.85e-05 ± 1.4e-05 s⁻¹. The “self-cleavage kobs at 640 uM GlcN6P” value with glucosamine-6-phosphate [5] came to 5.98e-05 ± 1.4e-05 s⁻¹. The “self-cleavage kobs at 2500 uM GlcN6P” value in the data set with glucosamine-6-phosphate [6] turned out to be 3.62e-05 ± 9.7e-06 s⁻¹. Moreover, the “self-cleavage kobs at 10000 uM GlcN6P” value in the data set with glucosamine-6-phosphate [7] turned out to be 2.86e-05 ± 7.6e-06 s⁻¹.

Regarding A6U G29C, the kcat in the data set with glucosamine-6-phosphate [1] was under 1e-05 s⁻¹. The “self-cleavage kobs at 40 uM GlcN6P” value with glucosamine-6-phosphate [3] was under 1e-05 s⁻¹. The “self-cleavage kobs at 160 uM GlcN6P” value with glucosamine-6-phosphate [4] was under 1e-05 s⁻¹. Further, the “self-cleavage kobs at 640 uM GlcN6P” value in the data set with glucosamine-6-phosphate [5] was under 1e-05 s⁻¹.

As to G7A U69A, the kcat with glucosamine-6-phosphate [1] was 1.56e-05 ± 3.6e-06 s⁻¹.

Take A14G G63U: the catalytic constant (kcat) with glucosamine-6-phosphate [1] is under 1e-05 s⁻¹. For the same variant, in the data set with glucosamine-6-phosphate [3], the “self-cleavage kobs at 40 uM GlcN6P” value is under 1e-05 s⁻¹. Also, the “self-cleavage kobs at 160 uM GlcN6P” value with glucosamine-6-phosphate [4] was under 1e-05 s⁻¹. Also, the “self-cleavage kobs at 640 uM GlcN6P” value with glucosamine-6-phosphate [5] was under 1e-05 s⁻¹. Moreover, the “self-cleavage kobs at 2500 uM GlcN6P” value with glucosamine-6-phosphate [6] was under 1e-05 s⁻¹.

Consider G37U U46G, for which the turnover number (kcat) with glucosamine-6-phosphate [1] was under 1e-05 s⁻¹. The “self-cleavage kobs at 640 uM GlcN6P” value with glucosamine-6-phosphate [5] was under 1e-05 s⁻¹.

For G37A U46A, the kcat with glucosamine-6-phosphate [1] was found to be 0.000136 ± 4.3e-06 s⁻¹. Besides, the Michaelis constant (KM) in the data set with glucosamine-6-phosphate [2] worked out at 2840 ± 210 µM. In addition, in the data set with glucosamine-6-phosphate [3], the “self-cleavage kobs at 40 uM GlcN6P” value was under 1e-05 s⁻¹. Further, the “self-cleavage kobs at 640 uM GlcN6P” value in the data set with glucosamine-6-phosphate [5] was 2.37e-05 ± 7.5e-06 s⁻¹. Moreover, in the data set with glucosamine-6-phosphate [6], the “self-cleavage kobs at 2500 uM GlcN6P” value amounted to 6.45e-05 ± 7.8e-06 s⁻¹. Moreover, in the data set with glucosamine-6-phosphate [7], the “self-cleavage kobs at 10000 uM GlcN6P” value came out at 0.000105 ± 1.1e-05 s⁻¹.

As to G35A U49C, the catalytic constant (kcat) with glucosamine-6-phosphate [1] was under 1e-05 s⁻¹. Further, the “self-cleavage kobs at 640 uM GlcN6P” value with glucosamine-6-phosphate [5] was under 1e-05 s⁻¹. The “self-cleavage kobs at 10000 uM GlcN6P” value in the data set with glucosamine-6-phosphate [7] was under 1e-05 s⁻¹.

For U31G G37C, the kcat with glucosamine-6-phosphate [1] is 2.89e-05 ± 1.4e-06 s⁻¹. Moreover, the Michaelis constant (KM) in the data set with glucosamine-6-phosphate [2] was found to be 1380 ± 340 µM. The “self-cleavage kobs at 40 uM GlcN6P” value in the data set with glucosamine-6-phosphate [3] is under 1e-05 s⁻¹.

Take A14U G43U: the turnover number (kcat) with glucosamine-6-phosphate [1] was under 1e-05 s⁻¹. For the same variant, the “self-cleavage kobs at 40 uM GlcN6P” value in the data set with glucosamine-6-phosphate [3] is under 1e-05 s⁻¹.

Take U57G C68G: in the data set with glucosamine-6-phosphate [1], the catalytic constant (kcat) worked out at 4.47e-05 ± 1.1e-05 s⁻¹. Moreover, the “self-cleavage kobs at 40 uM GlcN6P” value with glucosamine-6-phosphate [3] was 2.48e-05 ± 1.2e-05 s⁻¹. Also, in the data set with glucosamine-6-phosphate [4], the “self-cleavage kobs at 160 uM GlcN6P” value amounted to 4.02e-05 ± 1.5e-05 s⁻¹. Moreover, the “self-cleavage kobs at 640 uM GlcN6P” value with glucosamine-6-phosphate [5] worked out at 4.72e-05 ± 1.4e-05 s⁻¹. Moreover, the “self-cleavage kobs at 2500 uM GlcN6P” value in the data set with glucosamine-6-phosphate [6] amounted to 5.88e-05 ± 1.3e-05 s⁻¹.
